Assay: soluble on expression in E. coli; label from the status in PepcDB or PDB records

Soluble on expression in E. coli, not soluble:
MGSDKIHHHHHHIEGPGTTENLKEFVTVDGKKDTQSGAFYLTTVGIRSATIFSAIKANFSDFQEVMSKKELMGDSSNSEYNRIQQYYMDSSKNAAIEQALKLAKVPYEMKFKGVYVLAMEDNSSFKGKIEVGDTVTGVDGKSFKSSEELMNYIKAQKVNQKVTVQFIQDGKAKEATGKLIELPTDKKAGIGIGLTDHTEIDSSIPVSIEAGDIGGPSAGLMFTLQTYEQLSHKDLRKGHEIAGTGTMNSQGIVGRIGGIDKKVVTASENGAEIFFAPDDEITSEMKKVEPKIKSNYQEAQEAAKKIGTKMKIVPVKTVQDALNYLEKLK
MGSDKIHHHHHHILVKNKIDNEFNWISMKEEQKLNVPIENQMPDLPNGCEVTSLSMLMNYYGIRVTKNELAQNIQHVSSFTNNGKYRGNPNQGFVGYMSIENAGWCVYNGPLYNVARKYTNRIQNATGSDFLSILKLVSDGHPVLIITTTTFNRVNNMQTWETNTGKVNVTPSSHACVITGYDKKKRIVYLNNPYGIKNQAVNWNNLENSYNQQGKQALYIK
MGSDKIHHHHHHIYWEFTTKNMLVLEFIEGIRIDDLESLNASKHNIKNITEIGTEVFFLQVFRDGFFHGDMHPGNILIDKEGALIPIDFGIMGRLSNKDRQFLALLLTYLLNKNYRKVVEIHDEANMLGKDVSHDHLSQAIRAISTPILNKPIGEVSLAKLLGQILSLSKKFNIEVQPQFTLLQKTMLMAEGTTRQINPNINMWELSRPLIDKWINDTHDPFKVLEEWFHKNKIALLKIPEIINKIDKILS
MGSDKIHHHHHHKDAAYPRAEAQTLDLAQKAIAIRSVRGEGNRTIDVANLFRDALLKGGWQVGDIEVTPVDDTAYIIATWKGSDPSLKPVVISGHMDVVEAKREDWERDPFVPVVENGILYGRGASDMKFDGALALSTLIELRRQGFKPKRTIVIEFSGDEETTMKTSAIIAEKLKNAELVINVDGGGGTLDEATGKPLYWTWQGAEKTYADYRLEVTNPGGHSSAPRPDNAIVQLSQALVKVGAYRFKAEQNDITRGYFEKAAPFTDRPEIAAAMRAFAANPADEKALATLRADPSMVGKVGTTCVPTMLGGGHAENALPQRAFANINCRIFPGHTKEAIMAELAQVVGDPAVKISDVTEGSVASPASPLRPDLMKAVTRAMTKAYPKVPLIPSQASGASDSMWFRALGVPSYGLSPSFSKDSEDFSHGLNERTRLSNIRPGITYYLTLITDLTK
MGSDKIHHHHHHLDDLSEFVDQVPLLDHHCHFLIDGKVPNRDDRLAQVSTEADKDYPLADTKNRLAYHGFLALAKEFALDANNPLAAMNDPGYATYNHRIFGHFHFKELLIDTGFVPDDPILDLDQTAELVGIPVKAIYRLETHAEDFMLEHDNFAAWWQAFSNDVKQAKAHGFVGFKSIAAYRVGLHLEPVNVIEAAAGFDTWKHSGEKRLTSKPLIDYMLYHVAPFIIAQDMPLQFHVGYGDADTDMYLGNPLLMRDYLKAFTKKGLKVVLLHCYPYHREAGYLASVFPNLYFDISLLDNLGPSGASRVFNEAVELAPYTRILFASDASTYPEMYGLAARQFKQALVAHFNQLPFVDLAQKKAWINAICWQTSAKLYHQERELRV
MGSDKIHHHHHHLETSPSSSVSGNELLGTATNALVSLNGVYRAMYTAGVSNSSNTHQCFGITAYNLVADVMGEDCIMNGQGSGWFWYDCVYNVKSRYTSTGWRSYDMWNGYYTWISNVNYILAEEETMSGSETEKNYVLGQAYAVRAYSYFMLAQMFSRTYKGHESEPCVPLYTEPTDIATEGKGRATIEEVYQQITSDLDKAITMLGNSGKRKHISHINEAVASGIKARVALVMEDWQTALDAANAAISKSGCSVGTGTAVTGGMNDATANNVMWAAEIIADQSGMYAGFFTHMDADQGKYGASARKQINKLLYAKLGTNDVRKKWWNPQDENNEKNGYQQEKFKFKDYAKWTGDYIFMRIEEMFLTAAEASCRLNDDKGARLMLNSLMQKRDEDYTCKKTGTALGKLTSDETGSLLEEIIIQRRIELWGEFGRIYDIRRLKQGFRRTADMGWPSSALIAGTDTEDPESYAWVLTIPQTEFDGNPNMDPSKDQNPIGDHK
MGSDKIHHHHHHLLLEQTNFRKEVNNIKIFNERNMNNLEYIIPECYADITNIYNNVIVMENIKGLTYNDVKDLDIEKKDIFGKLLMKFGLISILYTSAVHCDIHPGNLFFYINEDVKDKPKYQLGLIDFGIVSFPNRENQNFYYTFFKNIQIDKDFSKLEDVLRCILCEKDKFKNLDTIKKRLLKETIERNIIETDNKYDLDFFLKLSYTINVYGFTFTKEFNQICLSLQVVENLLKNLLLDIRKTQDEIIETFNNINKLIT
MGSDKIHHHHHHLPALRLLAGPTAYEQLEANGLDQSLFTQLFAASGGPKWLAIAGLDKYLFSEFFQDREDPLYTMGASSGAWRLACMAQQDPLAAYERLEHFYIHQNYEKKPTREQVSAQVLQIVDGILGEQQGADIIANPLIRHHMVACRARHLNRIHAKFGLMMGLSMAAVSNVVNRKSLGWHFERVILSHKDAASPFRRLKDLPTKHVELTQDNIRHGLLATGSIPLLLDPVKDLQGSPKGHYYDGGITDYHFDMPLPAATGLSLYPHFYPYMSPGWFDKSLLWRKAKANYHNGLILAPSKQFIASLPFSKIPDREDFKNLDTKSRITYWQQSVQQSQVLADEFAEIVASGTIMDRIERL
MGSDKIHHHHHHLTLRVAVIGSGPAGSSAAETLAASGIETYLFERKLDNAKPCGGAIPLCMVSEFDLPPEIIDRRVRKMKMISPSNREVDINLINEDEYIGMCRREVLDGFLRDRAAKLGANLINATVHKLDIPGNNTDPYTIHYVDHTEGISQGIAKTLKVDLIIGADGANSRVAKEMDAGDYNYAIAFQERIRLPEDKMAYYNDLAEMYVGDDVSTDFYAWVFPKYDHVAVGTGTMHINKASIKQLQAGIRARASEKLAGGKIIKVEAHPIPEHPRPRRVVGRIALVGDAAGYVTKSSGEGIYFAAKSGRMCAETIVEASNSGSRIPTEGDLKIYLKRWDKRYGLTYKVLDILQSVFYRSDATREAFVEMCDDLDVQRLTFDSYLYKTVVPANPITQLKITAKTIGSLIRGNALAP
MGSDKIHHHHHHMAAQNAFEQKKRAILNEIDSTQPDLSPKGTIDELCLPIIDLINASADMVTTSSCSGRVSVFLEGTKSYNGEVKIGGKGQGGKWLYVTHDREKVIGWLDELKSKSEFSFELSGKEIPTEKVTGSIRYILYKYEPFILHVKCRDFQAASKLYNTAMSCGFRESGIGSNNLVAIRINIKLDVPLGYLDETSGTLKFFVTPEYVSVLDSLSLSKFDENTRKMQALYDRIEKELINCAPDVNSKVNITPIETKEERRERKKREGMERQRQLKSPQNVL
MGSDKIHHHHHHMADGGSERADGRIVKMEVDYSATVDQRLPECAKLAKEGRLQEVIETLLSLEKQTRTASDMVSTSRILVAVVKMCYEAKEWDLLNENIMLLSKRRSQLKQAVAKMVQQCCTYVEEITDLPIKLRLIDTLRMVTEGKIYVEIERARLTKTLATIKEQNGDVKEAASILQELQVETYGSMEKKERVEFILEQMRLCLAVKDYIRTQIISKKINTKFFQEENTEKLKLKYYNLMIQLDQHEGSYLSICKHYRAIYDTPCIQAESEKWQQALKSVVLYVILAPFDNEQSDLVHRISGDKKLEEIPKYKDLLKLFTTMELMRWSTLVEDYGMELRKGSLESPATDVFGSTEEGEKRWKDLKNRVVEHNIRIMAKYYTRITMKRMAQLLDLSVDESEAFLSNLVVNKTIFAKVDRLAGIINFQRPKDPNNLLNDWSQKLNSLMSLVNKTTHLIAKEEMIHNLQ
MGSDKIHHHHHHMADISIEQSMQLFELQPGKSLDLQINNPVSLRLKLPLIGYELGKYIILKYPKSANTSEYKDVLIEGNVLIVRYLMEGNKGECFAFRSSIKNITQYPEKFIFIEYPNKIENRQLRLQQRTSIHLPAIIMLESSGDNKKTQINGIIGDISAKGCGFTFKTKSTSTKVNKRDIFVCLRSPIDGEVQIPARVCNSRNDNGTVNVGIQFIDNEKLVPKLLSELFIENTMS
MGSDKIHHHHHHMAELIFSRETDCRYCYKCLRNCPVKAISFKSGKSTVLEEECVFCGSCLDICPQNARSYRKDVERFLSLSEPFLVSIAPSFFAYFENPLKVIGVLKEMGAVVVQETAVGAEIVSRRYEEVFEKHSGPFITTACPVVVNLAEKHFPNVLKYFAPVDSPLMTHAKFLKTRYGDFPIVFVGPCIAKKSESDLVDVALTFEELEEILEEREGKEALPDGPYPDRARFYPTTDGIGYTVSVPWEKKLVVEGVENLMRVFSRIDEYKSVFIEASACYGSCLNGPVMKKKSNGKERLLEWQKKLPKEPK
MGSDKIHHHHHHMAGSVIHLDENAGPPATHGLVVGVGKYPHLEGGEAPVADSDGMRQLSSPPLSARAFARWLLAEYHDPQRPLGSVSLLLSEEQPAPFVNPRTGTAHEVEVATIDNILAAVTQWYDRGDSHVDNRLVFYFCGHGISQGDDMALLAADIFADPHNPLNGALDFAGLMNGLKRCKASQQVFFLDACRSNSDVLIEASGTRFAGRTPLGAGARPLDLPRRFHIPYYATLSGDQSHARPGQVSLFTEALLKSLAGAASDDPEGDWRVNTAHLLEAIDHFMHQPCFAGMVAGVQVPAVGELPVFVLHQLAGPPVVPVYVGCDPAQDNAEAEFVCLEGGRERLRRTLNDVDDTDPESEWAIELSFGDYDFEARLGERDVRTKTITVRPVFRRVHLVKS
MGSDKIHHHHHHMAHYEVKPSFYNYVFSPYLEPAIKVNPGDTVSLYTDDAFESRITSEDVSPKAAVRNAKFLNPQSGPVYINGAEPGDTLAVHFESIEFTRDWAVSCVMEYFGGLQSNSITKMLQKPLVEEVYIWKSKDKGQTWTNDKIGVTIPANPFCGTLATAPDTEAIQALTPGQFGGNMDCPDICPGHTIYLPVHNPGALFYIGDCHAAQGQGELCGVALEISAKATLKFDVIKNKVTNWPRIESPEKIMSVGSAKPMEDAARIAYADLIDWMVSDYGFKVLDAYELLTMVGGLYVANMVDTTYSLCASIEKKYLKRNS
MGSDKIHHHHHHMAIETILVINKSGGLIYQRNFTNDEQKLNSNEYLILASTLHGVFAIASQLTPKALQLTQQTNIENTIPYIPYVGMSSNRSDTRNGGGNNNKHTNNEKLGSFKGDDFFKEPFTNWNKSGLRQLCTDQFTMFIYQTLTGLKFVAISSSVMPQRQPTIATTDKPDRPKSTSNLAIQIADNFLRKVYCLYSDYVMKDPSYSMEMPIRSNLFDEKVKKMVENLQ
MGSDKIHHHHHHMAILLMQKPDNKAKQFICKKLGINNLGITKPGGRGLTQPVVKLELKRPLYAKGNNYNIINNDETDRYWKPAGITKIFLDRLTNCVSQEAGNMALAEGYFSLEDRYTLYFDISKIQQEFVDLNAQEFFRQFDNLKTLGMLADIAIPLQLCNGLDASITNFSDGQFQSVYIYSIVELFKDRNCLTLLDEPDSFLHPEWQFEFPKQVLEITDAAAKSNHILMSSHSASTITTANENLINLFELQDDKIVVNKVNKADIIKSLSAGLISFSESEAHLNIHHALKNTTGAVLFTEGITDEMILETAWTKIFPAQKRSFAIQNAFDRIFLRNLFSREELEKNFPDRIMFALFDFDEAYDDWNGLKKESDSETDPYKGLSKQLKCKHHYAMLLPVPDIQALKHQVLNPEGKPWGKGAQSHLPIELLFYKDEFLGQWFQKKATPGGGEIIEFIGDKVSFAKNFVPTLEATCFEPLKLVFEFIQSKC

— the DeepSol protein solubility set
